Target: T1, human IL-1R3 expressed on cells (SK-MEL-30 and other human cell lines) (human, UniProt Q9NPH3 21-570)
T1 construct: whole, on cells; also called hIL1R3; IL-1RAcP
T1 sequence (looked up): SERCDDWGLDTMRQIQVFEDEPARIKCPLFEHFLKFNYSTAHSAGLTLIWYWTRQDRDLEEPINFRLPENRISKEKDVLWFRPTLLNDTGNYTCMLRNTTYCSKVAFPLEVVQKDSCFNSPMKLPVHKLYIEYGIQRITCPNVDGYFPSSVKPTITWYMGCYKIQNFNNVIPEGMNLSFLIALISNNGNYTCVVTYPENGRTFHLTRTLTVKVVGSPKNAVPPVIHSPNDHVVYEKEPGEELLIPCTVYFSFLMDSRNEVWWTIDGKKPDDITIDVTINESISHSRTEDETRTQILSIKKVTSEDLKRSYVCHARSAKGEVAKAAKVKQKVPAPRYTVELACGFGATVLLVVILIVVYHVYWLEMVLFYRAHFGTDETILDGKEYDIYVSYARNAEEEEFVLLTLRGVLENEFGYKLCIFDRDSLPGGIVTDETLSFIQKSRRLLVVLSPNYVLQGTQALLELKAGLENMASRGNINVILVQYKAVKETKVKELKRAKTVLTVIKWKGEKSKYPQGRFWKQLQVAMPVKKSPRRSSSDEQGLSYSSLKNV
Test: flow cytometry on the high-IL-1R3-expressing cell line SK-MEL-30

B1: MAB-16-0030, humanized anti-IL-1R3 IgG1-LALA antibody (antibody, V domains shown)
VH: EVQLEESGGRLVQPGTSLRLSCAVSGFSLSSYDMSWVRQAPGKGLEWVSTIYIGGTTAYASWPKGRFTISKTNSKNTLYLQMNSLRAEDTAVYFCARLQGANYYNSLALWGQGTLVTVSS
VL: DVQMTQSPSSLSASVGDRVTITCQASQSIYSFLSWYQQKPGQAPKLLIYAASDLESGVPSRFSGSGSGTDFTLTISSLQPEDFATYYCQCNYIIDYGAFGQGTKVVIKR
notes: Humanized IgG1 with L234A and L235A (IgG1-LALA); also called anti-hIL-1R3 antibody MAB-16-0030; IgG1-LALA version of MAB-16-0030
EC50: 0.307 µg/mL

— EP4803542A2 (Sanofi Biotechnology, dated 2026)
